Results from US20250320281A1.

Legend:
Test in all cases: cell-based or functional assay
[1] = target: HIV-1 Env of isolate TR0.11 (clade B pseudovirus) (HIV-1)
[2] = target: HIV-1 Env of isolate THRO.18 (clade B pseudovirus) (HIV-1)
[3] = target: HIV-1 Env of isolate CAAN (clade B pseudovirus) (HIV-1)
[4] = target: HIV-1 Env of isolate DU422 (clade C pseudovirus) (HIV-1)
[5] = target: HIV-1 Env of isolate ZM249 (clade C pseudovirus) (HIV-1)
[6] = target: HIV-1 JRCSF envelope glycoprotein (Env) on pseudovirus (HIV-1 isolate JRCSF (clade B)) (UniProt P20871)
[7] = target: HIV-1 MGRM-A-010 envelope glycoprotein (Env) on pseudovirus (HIV-1 isolate MGRM-A-010 (clade A))
[8] = target: HIV-1 92RW020 envelope glycoprotein (Env) on pseudovirus (HIV-1 isolate 92RW020 (clade A))
[9] = target: HIV-1 92UG024 envelope glycoprotein (Env) on pseudovirus (HIV-1 isolate 92UG024 (clade D))
[10] = target: HIV-1 93IN905 envelope glycoprotein (Env) on pseudovirus (HIV-1 isolate 93IN905 (clade C))
[11] = target: HIV-1 Env of isolate 94UG103 (pseudovirus) (HIV-1)
[12] = target: aMLV envelope protein on pseudovirus (negative control virus) (aMLV)
[13] = target: HIV-1 Env of isolate 92BR020 (pseudovirus) (HIV-1)
[14] = target: HIV-1 NL43 Env (HIV-1)
[15] = target: HIV-1 MGRM-C-027 Env (HIV-1)
[16] = target: HIV-1 APV17 Env (HIV-1)
[17] = target: HIV-1 JRFL Env (HIV-1)
[18] = target: HIV-1 MGRM-D-018 Env (HIV-1)
[19] = target: HIV-1 MGRM-A-010 Env (pseudovirus) (HIV-1 isolate MGRM-A-010 (clade A))
[20] = target: HIV-1 MGRM-C-027 Env (pseudovirus) (HIV-1 isolate MGRM-C-027 (clade C))
[21] = target: HIV-1 MGRM-AG-005 Env (pseudovirus) (HIV-1 isolate MGRM-AG-005 (clade AG))
[22] = target: HIV-1 92UG005 Env (pseudovirus) (HIV-1 isolate 92UG005 (clade D))
[23] = target: HIV-1 MGRM-C-028 Env (pseudovirus) (HIV-1 isolate MGRM-C-028 (clade C))
[24] = target: HIV-1 94UG103 Env (pseudovirus) (HIV-1 isolate 94UG103 (clade A))
[25] = target: HIV-1 Env of pseudovirus 93UG077 (subtype A) (HIV-1)
[26] = target: HIV-1 Env of isolate MGRM-F1-008 (clade F), on pseudovirus (HIV-1)
[27] = target: HIV-1 Env of isolate MGRM-F1-021 (clade F pseudovirus) (HIV-1)
[28] = target: HIV-1 Env of isolate MG RM-D-029 (clade D), on pseudovirus (HIV-1)
[29] = target: HIV-1 Env of isolate MGRM-F1-015 (clade F), on pseudovirus (HIV-1)
[30] = target: HIV-1 Env of pseudovirus MGRM-A-006 (subtype A) (HIV-1)
[31] = target: HIV-1 Env of isolate MGRM-Chronic-B-020 (HIV-1)
[32] = target: HIV-1 Env of pseudovirus MGRM-AG-006 (subtype AG) (HIV-1)
[33] = target: HIV-1 Env of isolate MG RM-D-026 (HIV-1)
[34] = target: HIV-1 Env of pseudovirus MGRM-AE-007 (subtype AE) (HIV-1)

Sequence of 1443_C16 (PG16) (TCN-116) (antibody) (VH): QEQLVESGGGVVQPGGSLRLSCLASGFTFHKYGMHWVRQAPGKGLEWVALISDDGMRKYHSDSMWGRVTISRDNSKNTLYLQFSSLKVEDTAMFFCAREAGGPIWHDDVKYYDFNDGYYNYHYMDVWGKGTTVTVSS
Sequence of 1443_C16 (PG16) (TCN-116) (antibody) (VL): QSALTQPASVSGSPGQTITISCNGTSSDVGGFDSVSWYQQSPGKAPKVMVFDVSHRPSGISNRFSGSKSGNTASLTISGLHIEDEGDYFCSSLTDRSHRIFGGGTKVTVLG

1443_C16 (PG16) (TCN-116) (antibody)
IC50 (neutralization, TZM-bl pseudovirus assay) [1]: 3.61 µg/mL | IC50 (neutralization, TZM-bl pseudovirus assay) [2]: 2.19 µg/mL | IC50 (neutralization, TZM-bl pseudovirus assay) [3]: 6.37 µg/mL | IC50 (neutralization, TZM-bl pseudovirus assay) [4]: 0.59 µg/mL | IC50 (neutralization, TZM-bl pseudovirus assay) [5]: < 0.01 µg/mL

1496_C09 (PG9) (TCN-109) (antibody)
neutralization IC50 [6]: 0.0048 µg/mL | neutralization IC80 [6]: 0.0181 µg/mL | neutralization IC90 [6]: 0.0391 µg/mL | neutralization IC95 [6]: 0.0798 µg/mL | neutralization IC50 [7]: 0.0375 µg/mL | neutralization IC80 [7]: 0.121 µg/mL | neutralization IC90 [7]: 0.242 µg/mL | neutralization IC95 [7]: 0.456 µg/mL | neutralization IC50 [8]: 0.161 µg/mL | neutralization IC80 [8]: 1.04 µg/mL | neutralization IC90 [8]: 3.4 µg/mL | neutralization IC50 [9]: 1.91 µg/mL | neutralization IC50 [10]: 0.048 µg/mL | neutralization IC80 [10]: 0.308 µg/mL | neutralization IC90 [10]: 0.981 µg/mL | neutralization IC95 [10]: 3.31 µg/mL

4858_P08 (PGT-123) (antibody)
Primary Neutralization Index (B cell culture supernatant) [11]: 1.1 | neutralization IC50 [12]: > 10 µg/mL | neutralization IC80 [12]: > 10 µg/mL | neutralization IC90 [12]: > 10 µg/mL | neutralization IC95 [12]: > 10 µg/mL | Primary Neutralization Index (B cell culture supernatant) [13]: 2.8

4877_D15 (PGT-122) (antibody)
Neutralization by PGT-122, IC50 [14]: > 10 µg/mL | Neutralization by PGT-122, IC80 [14]: > 10 µg/mL | Neutralization by PGT-122, IC90 [14]: > 10 µg/mL | Neutralization by PGT-122, IC95 [14]: > 10 µg/mL | Neutralization by PGT-122, IC50 [15]: 0.0388 µg/mL | Neutralization by PGT-122, IC80 [15]: 0.499 µg/mL | Neutralization by PGT-122, IC90 [15]: > 10 µg/mL | Neutralization by PGT-122, IC95 [15]: > 10 µg/mL | Neutralization by PGT-122, IC50 [16]: 0.522 µg/mL | Neutralization by PGT-122, IC80 [16]: 1.76 µg/mL | Neutralization by PGT-122, IC90 [16]: 3.58 µg/mL | Neutralization by PGT-122, IC95 [16]: 6.92 µg/mL | Neutralization by PGT-122, IC50 [17]: 0.0471 µg/mL | Neutralization by PGT-122, IC80 [17]: 0.166 µg/mL | Neutralization by PGT-122, IC90 [17]: 0.342 µg/mL | Neutralization by PGT-122, IC95 [17]: 0.659 µg/mL | Neutralization by PGT-122, IC50 [18]: 0.0115 µg/mL | Neutralization by PGT-122, IC80 [18]: 0.035 µg/mL | Neutralization by PGT-122, IC90 [18]: 0.0674 µg/mL | Neutralization by PGT-122, IC95 [18]: 0.125 µg/mL

5123_A06 (PGT-125) (antibody)
Neutralization by PGT-125, IC50 [19]: 0.0055 µg/mL | Neutralization by PGT-125, IC80 [19]: 0.024 µg/mL | Neutralization by PGT-125, IC90 [19]: 0.0575 µg/mL | Neutralization by PGT-125, IC95 [19]: 0.131 µg/mL | Neutralization by PGT-125, IC50 [20]: > 10 µg/mL | Neutralization by PGT-125, IC80 [20]: > 10 µg/mL | Neutralization by PGT-125, IC90 [20]: > 10 µg/mL | Neutralization by PGT-125, IC95 [20]: > 10 µg/mL | Neutralization by PGT-125, IC50 [21]: > 10 µg/mL | Neutralization by PGT-125, IC80 [21]: > 10 µg/mL | Neutralization by PGT-125, IC90 [21]: > 10 µg/mL | Neutralization by PGT-125, IC95 [21]: > 10 µg/mL | Neutralization by PGT-125, IC50 [22]: > 10 µg/mL | Neutralization by PGT-125, IC80 [22]: > 10 µg/mL | Neutralization by PGT-125, IC90 [22]: > 10 µg/mL | Neutralization by PGT-125, IC95 [22]: > 10 µg/mL | Neutralization by PGT-125, IC50 [23]: 5.78 µg/mL | Neutralization by PGT-125, IC80 [23]: > 10 µg/mL | Neutralization by PGT-125, IC90 [23]: > 10 µg/mL | Neutralization by PGT-125, IC95 [23]: > 10 µg/mL | Neutralization by PGT-125, IC50 [24]: 0.0124 µg/mL | Neutralization by PGT-125, IC80 [24]: 0.0373 µg/mL | Neutralization by PGT-125, IC90 [24]: 0.071 µg/mL | Neutralization by PGT-125, IC95 [24]: 0.129 µg/mL

PGV04 (antibody)
IC50, pseudovirus neutralization [25]: 0.083 µg/mL | IC50 (µg/mL), pseudovirus neutralization [26]: 1.03 µg/mL | IC50 (µg/mL), pseudovirus neutralization [27]: 0.031 µg/mL | IC50 (µg/mL), pseudovirus neutralization [28]: 1.56 µg/mL | IC50 (µg/mL), pseudovirus neutralization [29]: 0.179 µg/mL | IC50, pseudovirus neutralization [30]: 0.244 µg/mL | IC50 (µg/mL), pseudovirus neutralization [31]: 1.26 µg/mL

VRC01 (antibody)
IC50, pseudovirus neutralization [32]: 0.344 µg/mL | IC50 [33]: 0.435 µg/mL | IC50, pseudovirus neutralization [34]: 0.835 µg/mL
